In assay [1] the target is recombinant full-length Pfs48/45 (ELISA antigen) (Plasmodium falciparum, strain not …, UniProt Q8I6T1). The assay can be described thus: ELISA.
Assay [2] has as its target T1, Pfs48/45 fragment containing D3 (ELISA antigen) (Plasmodium falciparum, strain not …).
T1 chain: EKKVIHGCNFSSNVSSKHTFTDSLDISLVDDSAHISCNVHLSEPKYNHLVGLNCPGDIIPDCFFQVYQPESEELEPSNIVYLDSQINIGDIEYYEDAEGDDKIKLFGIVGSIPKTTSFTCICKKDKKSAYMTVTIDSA
As to the kind of experiment: ELISA. On the technique in general: ELISA stands for enzyme-linked immunosorbent assay.

For assay [3], the target named is Pfs48/45 on live female Pf NF54 gametes (Plasmodium falciparum NF54 (3D7 is its …, UniProt Q8I6T1)). As to the kind of experiment: flow cytometry on cells. (In general: A flow cytometer gives signals particle by particle.)
Pfs48/45 on live female Pf NF54 gametes (Plasmodium falciparum NF54, sequence (Q8I6T1 28-426): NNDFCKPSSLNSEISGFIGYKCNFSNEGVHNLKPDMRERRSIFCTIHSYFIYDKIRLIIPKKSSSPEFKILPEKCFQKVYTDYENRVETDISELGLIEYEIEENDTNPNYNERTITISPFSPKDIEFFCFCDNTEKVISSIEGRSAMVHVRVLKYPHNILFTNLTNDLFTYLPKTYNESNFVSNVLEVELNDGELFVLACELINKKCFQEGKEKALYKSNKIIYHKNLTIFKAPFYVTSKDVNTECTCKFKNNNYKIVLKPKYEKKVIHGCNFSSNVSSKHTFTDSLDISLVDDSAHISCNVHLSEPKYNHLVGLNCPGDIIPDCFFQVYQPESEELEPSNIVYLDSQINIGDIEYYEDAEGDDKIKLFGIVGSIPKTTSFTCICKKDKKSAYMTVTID
The target in assay [4] is Pfs48/45 D1D2 (domains 1 and 2, aa 27–294), native sequence (Plasmodium falciparum (isolate 3D7)., UniProt Q8I6T1). As to the kind of experiment: BLI. A general note: Biolayer interferometry detects binding as a change in optical thickness at a sensor tip.
Pfs48/45 D1D2 (domains 1 and 2, aa 27–294), native sequence, sequence (Q8I6T1 27-294): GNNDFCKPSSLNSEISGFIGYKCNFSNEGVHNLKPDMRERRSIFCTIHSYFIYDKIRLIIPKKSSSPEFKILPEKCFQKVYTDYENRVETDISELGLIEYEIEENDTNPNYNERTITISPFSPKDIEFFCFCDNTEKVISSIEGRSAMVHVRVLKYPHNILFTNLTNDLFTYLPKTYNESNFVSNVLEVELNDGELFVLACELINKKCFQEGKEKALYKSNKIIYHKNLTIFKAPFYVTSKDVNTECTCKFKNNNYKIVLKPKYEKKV

Experimental findings from publication PMC12350152 (Nature Structural & Molecular Biology, 2025) are described below.

recombinant full-length Pfs48/45 (ELISA antigen), sequence (Q8I6T1 28-426): as the sequence (Q8I6T1 28-426) above

B1: RUPA-44 mAb (IgG) (antibody, V domains shown)
VH: QLQLQESGPGLVKPSETLSLTCTVSGGSISRSPYYWGWIRQPPGKGLEWFGSIYNNGSTYYNPPLKSRLTISVDTSKNQFSLKLSSVTAADTAVYYCARHGGSTGMKVVVIAPPDYWGQGTLVTVSS
VL: DIQMTQSPATLSASVGDRVTITCRASQSISSWLAWYQQKPGEAPKLLIYKASSLQSGVPSRFSGSGSGTKFSLTISSLQPDDFATFYCQQYHSYPYTFGQGTKLEIK
Take B1: the binding result in assay [1], in assay [2] and in assay [3] was “binds” each time.

B2: 10D8 Fab (Fab, V domains shown)
VH: EVMLVESGGDLVKPGGSLKVSCAASGFTFSNYAMSWVRQTPEKRLEWVATISSGASYTHYPDSVKGRFTISRDNAKNTLYLQMSSLRSEDTAMYYCGRQVNRHDRALDAMDYWGQGTSVTVSP
VL: not shown
For B2, the binding result in assay [4] was “binds”.
